Assay results as given in article doi:10.1101/2025.03.26.645513 (bioRxiv, 2025).

B1: Escherichia coli serine acetyltransferase CysE (enzyme)
chain: MSCEELEIVWNNIKAEARTLADCEPMLASFYHATLLKHENLGSALSYMLANKLSSPIMPAIAIREVVEEAYAADPEMIASAACDIQAVRTRDPAVDKYSTPLLYLKGFHALQAYRIGHWLWNQGRRALAIFLQNQVSVTFQVDIHPAAKIGRGIMLDHATGIVVGETAVIENDVSILQSVTLGGTGKSGGDRHPKIREGVMIGAGAKILGNIEVGRGAKIGAGSVVLQPVPPHTTAAGVPARIVGKPDSDKPSMDMDQHFNGINHTFEYGDGI
B2: Escherichia coli O-acetylserine sulfhydrylase CysK (enzyme, UniProt P0ABK5 1-323, looked up)
chain: MSKIFEDNSLTIGHTPLVRLNRIGNGRILAKVESRNPSFSVKCRIGANMIWDAEKRGVLKPGVELVEPTSGNTGIALAYVAAARGYKLTLTMPETMSIERRKLLKALGANLVLTEGAKGMKGAIQKAEEIVASNPEKYLLLQQFSNPANPEIHEKTTGPEIWEDTDGQVDVFIAGVGTGGTLTGVSRYIKGTKGKTDLISVAVEPTDSPVIAQALAGEEIKPGPHKIQGIGAGFIPANLDLKLVDKVIGITNEEAISTARRLMEEEGILAGISSGAAVAAALKLQEDESFTNKNIVVILPSSGERYLSTALFADLFTEKELQQ
B3: Staphylococcus aureus O-acetylserine sulfhydrylase CysK (enzyme, UniProt P63870 1-310, looked up)
chain: MAQKPVDNITQIIGGTPVVKLRNVVDDNAADVYVKLEYQNPGGSVKDRIALAMIEKAEREGKIKPGDTIVEPTSGNTGIGLAFVCAAKGYKAVFTMPETMSQERRNLLKAYGAELVLTPGSEAMKGAIKKAKELKEEHGYFEPQQFENPANPEVHELTTGPELLQQFEGKTIDAFLAGVGTGGTLSGVGKVLKKEYPNIEIVAIEPEASPVLSGGEPGPHKLQGLGAGFIPGTLNTEIYDSIIKVGNDTAMEMSRRVAKEEGILAGISSGAAIYAAIQKAKELGKGKTVVTVLPSNGERYLSTPLYSFDD
B4: Neisseria gonorrhoeae serine acetyltransferase CysE (enzyme)
chain: MKKNHLNTTGFDLWHTIREETAAAAAAEPMLASFLHQTVLRHESLGSVLAYHLSSKLGSPIMDVRALFEIYQQALGSDTQISKCVEADLKAIYERDPACDEYSLPLLYFKGFHAIQAHRINHRLYLDGRKTLAYFLQNRMSEVFGVDIHPAARLGYGLMLDHATGFVAGETAVLGNNISILHGVTLGGSGKEGGDRHPKIGDGVMIGANASILGNIRIGSNAKIGAGSVVVSDVPPSITVVGVPAKPVARSLKTPSADMDQNIQFAEIDFMI

Key:
[1] = molecular target: Neisseria gonorrhoeae O-acetylserine sulfhydrylase CysK (Neisseria gonorrhoeae); experiment: SEC
[2] = molecular target: Neisseria gonorrhoeae O-acetylserine sulfhydrylase CysK (Neisseria gonorrhoeae); experiment: SEC-SAXS
SEC = molecular target: the molecule itself; experiment: SEC
[3] = molecular target: B2; experiment: SEC
SEC-SAXS = molecular target: the molecule itself; experiment: SEC-SAXS

Molecule | stoichiometry N (SEC) | stoichiometry N (SEC-SAXS) | further results
Neisseria gonorrhoeae O-acetylserine sulfhydrylase CysK (enzyme) | – | – | stoichiometry N [1]: 2; stoichiometry N [2]: 2
B1 | 6 | – | binding result [3]: binds
B2 | – | 2 | –
B3 | – | 2 | –
B4 | 6 | – | –
